Experimental data published in paper PMC7545189, “Structural characterization of the ICOS/ICOS-L immune complex reveals high molecular mimicry by therapeutic antibodies” (Nature Communications, 2020).

Key:
[1] = target: T1, human ICOS ectodomain (residues 21-138), His-tagged, immobilised on Ni-NTA biosensors (human, UniProt Q9Y6W8); assay: BLI; His-tagged ICOS or ICOS-L on Ni-NTA biosensors, Fabs as analytes (prezalumab 1:2 serial dilutions from 31 nM); PBS pH 7.4, 0.01% BSA, 0.002% Tween; 1:1 fit; conditions: both partners purified
T1 construct: human ICOS ectodomain, UniProtKB Q9Y6W8, residues 21-138, followed by a TEV cleavage site; The His6 tag of the vector lies C-terminal of TEV site and Venus, so the His-tagged form used for loading is probably the undigested ICOS-TEV-Venus-His6 fusion; also called inducible T-cell co-stimulator; CD278; source: HEK 293F, transiently transfected, purified from the supernatant (HisTrap Ni-NTA); not …

[2] = target: T2, human ICOS ectodomain (residues 21-138), His-tagged, immobilised on Ni-NTA biosensors (human, UniProt Q9Y6W8 21-138); assay: BLI
T2 chain: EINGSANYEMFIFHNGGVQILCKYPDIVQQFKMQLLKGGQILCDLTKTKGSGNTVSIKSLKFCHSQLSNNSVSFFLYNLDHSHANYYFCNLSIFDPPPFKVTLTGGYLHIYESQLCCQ

[3] = target: T3, human ICOS ectodomain N110Q, His-tagged, immobilised for STIM003 binding (human, UniProt Q9Y6W8 21-138, N110Q); assay: BLI
T3 sequence: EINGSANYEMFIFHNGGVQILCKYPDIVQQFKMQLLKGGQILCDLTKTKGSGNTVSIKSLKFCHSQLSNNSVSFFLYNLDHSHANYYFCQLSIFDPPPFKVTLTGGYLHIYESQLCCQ

[4] = target: T2, human ICOS ectodomain (residues …); assay: BLI
[5] = target: T3, human ICOS ectodomain N110Q, …; assay: BLI; remark: listed apart in the source
[6] = target: T4, human ICOS C136A C137A N23Q (residues 21-138), crystallised with STIM003 Fab (human, UniProt Q9Y6W8, C136A | C137A | N23Q); assay: crystal structure; ICOS C136A C137A N23Q/STIM003 Fab complex, co-expressed and co-purified, then incubated 1:5 with anti-kappa VHH and gel filtered, 2.38 A; 0.2 M di-sodium hydrogen phosphate, 20% PEG 3350; conditions: both partners purified
T4 construct: human ICOS ectodomain, UniProtKB Q9Y6W8, residues 21-138 with C136A, C137A and N23Q; not shown: Venus (monomeric variant), C-terminal, cleaved; His6, C-terminal, cleaved
T4 sequence (Q9Y6W8 21-138 N23Q/C136A/C137A): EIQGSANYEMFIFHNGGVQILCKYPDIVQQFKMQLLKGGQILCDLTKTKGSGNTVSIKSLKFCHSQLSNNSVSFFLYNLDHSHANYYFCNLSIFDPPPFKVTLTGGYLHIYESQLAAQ

[7] = target: T5, human ICOS ectodomain N110Q (N110 glycan knock-out mutant), analyte (human, UniProt Q9Y6W8 21-138, N110Q); assay: BLI
T5 sequence: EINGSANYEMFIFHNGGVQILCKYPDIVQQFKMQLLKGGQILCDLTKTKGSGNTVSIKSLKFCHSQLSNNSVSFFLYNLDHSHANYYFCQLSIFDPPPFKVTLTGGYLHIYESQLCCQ

[8] = target: T6, human ICOS ectodomain (residues 21-138), untagged, disulfide-linked homodimer (human, UniProt Q9Y6W8 21-138); assay: BLI; ICOS-L immobilized
T6 chain: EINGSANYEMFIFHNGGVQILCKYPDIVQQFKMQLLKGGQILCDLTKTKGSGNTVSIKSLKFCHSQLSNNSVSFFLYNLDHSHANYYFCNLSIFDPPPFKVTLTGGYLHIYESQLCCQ

[9] = target: T6, human ICOS ectodomain (residues …); assay: BLI; ICOS-L immobilized
[10] = target: T5, human ICOS ectodomain N110Q (N110 …); assay: BLI; remark: listed apart in the source
[11] = target: T7, human ICOS-L ectodomain (residues 19-248), crystallised in complexes (human, UniProt O75144 19-248); assay: crystal structure; ICOS (21-129)/ICOS-L (19-248)/VNAR complex, co-expressed and co-purified, 3.3 A; 0.1 M HEPES pH 7.0, 30% Jeffamine ED-2001; conditions: both partners purified
T7 construct: not shown: Venus (monomeric variant), C-terminal, cleaved; His6, C-terminal, cleaved
T7 sequence (looked up): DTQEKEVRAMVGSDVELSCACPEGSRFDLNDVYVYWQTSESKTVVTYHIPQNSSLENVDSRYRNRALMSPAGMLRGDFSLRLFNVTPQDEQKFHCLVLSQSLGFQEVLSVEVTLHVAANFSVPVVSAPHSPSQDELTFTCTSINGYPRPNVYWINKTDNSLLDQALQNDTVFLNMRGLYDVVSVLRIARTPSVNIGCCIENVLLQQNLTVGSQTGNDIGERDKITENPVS

B1: STIM003 Fab (purified, for BLI) (Fab, V domains shown)
VH: EVQLVESGGGVVRPGGSLRLSCVASGVTFDDYGMSWVRQAPGKGLEWVSGINWNGGDTDYSDSVKGRFTISRDNAKNSLYLQMNSLRAEDTALYYCARDFYGSGSYYHVPFDYWGQGILVTVSS
VL: EIVLTQSPGTLSLSPGERATLSCRASQSVSRSYLAWYQQKRGQAPRLLIYGASSRATGIPDRFSGDGSGTDFTLSISRLEPEDFAVYYCHQYDMSPFTFGPGTKVDIK
notes: Fab heavy chain of STIM003; Fab light chain (kappa) of STIM003; Kappa light chain (KappaSelect purification); also called anti-ICOS monoclonal antibody; source: HEK 293F, transiently co-transfected LC and HC, purified (KappaSelect, MonoS, Superdex 200)
[1]
  binding result: binds
[2]
  koff: 0.00072 s⁻¹
[3]
  koff: 0.001 s⁻¹
[4]
  Kd: 2 nM
[5]
  Kd: 1.8 nM

B2: STIM003 Fab (co-expressed with ICOS, for the crystal structure) (Fab, V domains shown)
VH: EVQLVESGGGVVRPGGSLRLSCVASGVTFDDYGMSWVRQAPGKGLEWVSGINWNGGDTDYSDSVKGRFTISRDNAKNSLYLQMNSLRAEDTALYYCARDFYGSGSYYHVPFDYWGQGILVTVSS
VL: EIVLTQSPGTLSLSPGERATLSCRASQSVSRSYLAWYQQKRGQAPRLLIYGASSRATGIPDRFSGDGSGTDFTLSISRLEPEDFAVYYCHQYDMSPFTFGPGTKVDIK
notes: as the heavy chain of m12; as the light chain (kappa) of m12; source: HEK 293S (Gnt I-/-), co-transfected with ICOS C136A C137A N23Q, complex purified
[6]
  binding result: binds

B3: human ICOS-L ectodomain (residues 19-248), His-tagged, immobilised on Ni-NTA biosensors (ligand)
chain: DTQEKEVRAMVGSDVELSCACPEGSRFDLNDVYVYWQTSESKTVVTYHIPQNSSLENVDSRYRNRALMSPAGMLRGDFSLRLFNVTPQDEQKFHCLVLSQSLGFQEVLSVEVTLHVAANFSVPVVSAPHSPSQDELTFTCTSINGYPRPNVYWINKTDNSLLDQALQNDTVFLNMRGLYDVVSVLRIARTPSVNIGCCIENVLLQQNLTVGSQTGNDIGERDKITENPVS
[7]
  koff: 0.00071 s⁻¹
[8]
  koff: 0.0012 s⁻¹
[9]
  Kd: 3 nM
[10]
  Kd: 0.7 nM

B4: human ICOS ectodomain (residues 21-129), crystallised with ICOS-L and VNAR (domain or fragment, UniProt Q9Y6W8 21-129, looked up)
chain: EINGSANYEMFIFHNGGVQILCKYPDIVQQFKMQLLKGGQILCDLTKTKGSGNTVSIKSLKFCHSQLSNNSVSFFLYNLDHSHANYYFCNLSIFDPPPFKVTLTGGYLH
modifications: N-linked glycan at N110 seen in the structure (two GlcNAc and three mannose residues)
notes: not shown: Venus (monomeric variant), C-terminal, cleaved; His6, C-terminal, cleaved
[11]
  stoichiometry N: 1
